B1: NfsA_Kp (Klebsiella pneumoniae) (protein)
chain: MTPTIELLRSHRSIRHFTDAPVSDEQRAEIIASAQAASTSSFLQCTSIIRITDPALRERLVPLTGGQQHVAQAAEFWVFCADFNRHLQICPQAQLGLAEQLLIGVVDTALLAQNALTAAESLGLGGVYIGGLRNSIEAVTELLELPQHVLPLFGLCLGWPADNPDIKPRMPAAMLVHENRYQPLDNALLAEYDEQLAHYYLSRGSNARRDTWSDHIRRTIVKESRPFILDYLHKQGWATR
B2: NfsB_Vv (Vibrio vulnificus YJ016) (protein)
chain: MTIVQAAQSRYSTKAFDASRKLPEEKVAAVKELIRMSASSVNSQPWHFIVASSEEGKARIAKATQGGFAFNERKILDASHVVVFCAKTAIDEAYLLDLLESEDKDGRFADVEAKNGMHAGRSFFVNMHRFDLKDAHHWMEKQVYLNVGTLLLGASAMEIDAVPIEGFDAKVLDEEFGLREKGFTSVVIVPLGYHSEDDFNAKLPKSRWSAETVFTEI
B3: YdgI_Bs (Bacillus subtilis subsp. subtilis str. 168) (protein)
chain: MIKTNDFMEIMKGRRSIRNYDPAVKISKEEMTEILEEATTAPSSVNAQPWRFLVIDSPEGKEKLAPLASFNQTQVTTSSAVIAVFADMNNADYLEEIYSKAVELGYMPQEVKDRQIAALTAHFEKLPAQVNRETILIDGGLVSMQLMLTARAHGYDTNPIGGYDKENIAETFGLDKERYVPVMLLSIGKAADEGYASYRLPIDTIAEWK
B4: NfsB_Kp (Klebsiella pneumoniae subsp. pneumoniae MGH 78578) (protein)
chain: MDIVSVALKRYSTKAFDATKKLTAGEAEQLKTLLQYSPSSTNSQPWHFIVASTDEGKARVAKAASGTYVFNERKILDASHVVVFCAKTAMDDAWLQRVVDQEEADGRFATPDAKAANHKGRTFFADMHRKELKDDDQWMAKQVYLNVGNFLLGVAAMGLDAVPIEGVDFAILDEEFDLKAQGYTSLVVVPVGHHSAEDFNATLPKSRLPQSTTITEI
B5: Frp_Vh1 (Vibrio harveyi) (protein)
chain: MNNTIETILAHRSIRKFTAVPITDEQRQTIIQAGLAASSSSMLQVVSIVRVTDSEKRNELAQFAGNQAYVESAAEFLVFCIDYQRHATINPDVQADFTELTLIGAVDSGIMAQNCLLAAESMGLGGVYIGGLRNSAAQVDELLGLPENSAVLFGMCLGHPDQNPEVKPRLPAHVVVHENQYQELNLDDIQSYDQTMQAYYASRTSNQKLSTWSQEVTGKLAGESRPHILPYLNSKGLAKR
B6: YcnD_Bs (Bacillus subtilis subsp. subtilis str. 168) (protein)
chain: MNEVIKSLTDHRSIRSYTDEPVAQEQLDQIIEAVQSAPSSINGQQVTVITVQDKERKKKISELAGGQPWIDQAPVFLLFCADFNRAKIALEDLHDFKMEITNGLESVLVGAVDAGIALGTATAAAESLGLGTVPIGAVRGNPQELIELLELPKYVFPLSGLVIGHPADRSAKKPRLPQEAVNHQETYLNQDELTSHIQAYDEQMSEYMNKRTNGKETRNWSQSIASYYERLYYPHIREMLEKQGFKVEK
B7: MdaB_Ec (Escherichia coli K-12) (protein)
chain: SNILIINGAKKFAHSNGQLNDTLTEVADGTLRDLGHDVRIVRADSDYDVKAEVQNFLWADVVIWQMPGWWMGAPWTVKKYIDDVFTEGHGTLYASDGRTRKDPSKKYGSGGLVQGKKYMLSLTWNAPMEAFTEKDQFFHGVGVDGVYLPFHKANQFLGMEPLPTFIANDVIKMPDVPRYTEEYRKHLVEIFG
B8: ChrR_Pa (Pseudomonas aeruginosa PAO1) (protein)
chain: MSDDIKVLGISGSLRSGSYNSAALQEAIGLVPPGMSIELADISGIPLYNEDVYALGFPPAVERFREQIRAADALLFATPEYNYSMAGVLKNAIDWASRPPEQPFSGKPAAILGASAGRFGTARAQYHLRQTLVFLDVHPLNKPEVMISSAQNAFDAQGRLLDDKARELIQQQLQALQLWVRRLRG
B9: NemA_Ec (Escherichia coli K-12) (protein)
chain: MSSEKLYSPLKVGAITAANRIFMAPLTRLRSIEPGDIPTPLMAEYYRQRASAGLIISEATQISAQAKGYAGAPGIHSPEQIAAWKKITAGVHAENGHMAVQLWHTGRISHASLQPGGQAPVAPSALSAGTRTSLRDENGQAIRVETSMPRALELEEIPGIVNDFRQAIANAREAGFDLVELHSAHGYLLHQFLSPSSNHRTDQYGGSVENRARLVLEVVDAGIEEWGADRIGIRVSPIGTFQNTDNGPNEEADALYLIEQLGKRGIAYLHMSEPDWAGGEPYTDAFREKVRARFHGPIIGAGAYTVEKAETLIGKGLIDAVAFGRDWIANPDLVARLQRKAELNPQRAESFYGGGAEGYTDYPTL
notes: free enzyme (not PhaC fusion)
B10: AzoR_Ec (Escherichia coli K-12) (protein)
chain: SKVLVLKSSILAGYSQSNQLSDYFVEQWREKHSADEITVRDLAANPIPVLDGELVGALRPSDAPLTPRQQEALALSDELIAELKAHDVIVIAAPMYNFNISTQLKNYFDLVARAGVTFRYTENGPEGLVTGKKAIVITSRGGIHKDGPTDLVTPYLSTFLGFIGITDVKFVFAEGIAYGPEMAAKAQSDAKAAIDSIVSA

These proteins were tested on [O]=[Cr](=[O])([OH])[OH] (assay: purified protein). Settings: 1 mM NADH, 50 mM Tris-Cl pH 7.0, 22°C.
For B1, the Km was 1.7 ± 1.0 µM, the kcat was 0.12 s⁻¹ and the kcat/Km was 69000 M⁻¹ s⁻¹.
B2 gave a Km of 2200 µM, a kcat of 0.8 s⁻¹ and a kcat/Km of 360 M⁻¹ s⁻¹.
For B3, the Km was 63 ± 1 µM, the kcat was 0.48 s⁻¹ and the kcat/Km was 7700 M⁻¹ s⁻¹.
B4 was tested, and the Km was 47 ± 4 µM, the kcat was 0.37 s⁻¹ and the kcat/Km was 7800 M⁻¹ s⁻¹.
B5 was tested, and the Km was 3.8 ± 0.5 µM, the kcat was 0.32 s⁻¹ and the kcat/Km was 84000 M⁻¹ s⁻¹.
Work on B6 yielded a Km of 73 ± 2 µM, a kcat of 0.37 s⁻¹ and a kcat/Km of 5000 M⁻¹ s⁻¹.
With B7 the Km was 170 ± 120 µM, the kcat was 0.2 s⁻¹ and the kcat/Km was 1100 M⁻¹ s⁻¹.
Work on B8 yielded a Km of 1300 ± 100 µM, a kcat of 1.5 s⁻¹ and a kcat/Km of 1100 M⁻¹ s⁻¹.

Same assay, conditions: 1 mM NADH, 50 mM Tris-Cl pH 7.0, 22°C, free enzyme
Protein B9 has a Km of 16 ± 9 µM, a kcat of 1 s⁻¹ and a kcat/Km of 110000 M⁻¹ s⁻¹.

These proteins were tested on [O]=[Cr](=[O])([OH])[OH] (assay: cells, lysate or membranes named). Settings: 1 mM NADH, 50 mM Tris-Cl pH 7.0, 22°C, no lysate or lawsone added.
Protein B10 has a Km of 380 µM, a kcat of 0.03 s⁻¹ and a kcat/Km of 87 M⁻¹ s⁻¹.

These proteins were tested on NC(=O)C1=CN([C@@H]2O[C@H](COP(=O)(O)OP(=O)(O)OC[C@H]3O[C@@H](n4cnc5c(N)ncnc54)[C@H](O)[C@@H]3O)[C@@H](O)[C@H]2O)C=CC1 (assay: diphenylcarbazide Cr(VI) assay, Lineweaver-Burk). Settings: 150 µM Cr(VI), 22°C, pH 7.0, free enzyme, varied: cofactor.
Assay type: biochemical, Escherichia coli
For B9, the Km was 450 ± 30 µM.

Source: paper PMC3596305, “Escherichia coli NemA Is an Efficient Chromate Reductase That Can Be Biologically Immobilized to Provide a Cell Free System for Remediation of Hexavalent Chromium” (PLoS ONE, 2013)
